The target in test [1] is recombinant soluble FcγRIIa-Arg131 (human) (UniProt P12318). In words: BLI (Octet); anti-TNP IgG captured on TNP-BSA-biotin, rsFcγR in solution; global 1:1 Langmuir fit. (In general: In BLI a coated tip is dipped into the sample, and binding shifts an interference pattern.)
Test [2] addresses recombinant soluble FcγRIIb (human) (UniProt P31994). Described as above.
Test [3] addresses human FcγRIIb expressed on the cell surface (human) (UniProt P31994). Put plainly: cell-based or functional assay.

human FcγRIIb expressed on the cell surface (human), sequence (P31994 43-310): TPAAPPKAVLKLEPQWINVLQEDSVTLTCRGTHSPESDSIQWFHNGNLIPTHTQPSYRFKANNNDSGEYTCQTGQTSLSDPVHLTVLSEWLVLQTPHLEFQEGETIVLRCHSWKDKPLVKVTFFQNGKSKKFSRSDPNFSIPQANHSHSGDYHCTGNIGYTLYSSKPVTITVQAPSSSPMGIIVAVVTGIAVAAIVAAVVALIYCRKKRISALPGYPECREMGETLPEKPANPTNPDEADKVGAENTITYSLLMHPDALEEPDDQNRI
recombinant soluble FcγRIIb (human), sequence (P31994 43-217): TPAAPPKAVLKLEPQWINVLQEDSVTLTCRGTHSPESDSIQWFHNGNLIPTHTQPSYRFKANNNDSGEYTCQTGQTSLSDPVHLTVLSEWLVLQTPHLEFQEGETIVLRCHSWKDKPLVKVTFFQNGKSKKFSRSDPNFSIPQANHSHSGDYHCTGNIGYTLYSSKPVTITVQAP
recombinant soluble FcγRIIa-Arg131 (human), sequence (P12318 34-217 H167R): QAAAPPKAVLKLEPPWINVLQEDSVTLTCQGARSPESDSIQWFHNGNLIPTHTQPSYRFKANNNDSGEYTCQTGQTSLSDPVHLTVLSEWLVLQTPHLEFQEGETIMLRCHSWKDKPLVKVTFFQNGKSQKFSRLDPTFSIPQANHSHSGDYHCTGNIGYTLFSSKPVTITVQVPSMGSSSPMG

On to “chimeric anti-TNP human IgG1-SELF (antibody)”, for which the Ka in test [1] amounted to 3.49e+08 M⁻¹; in test [2], 7.4e+07 M⁻¹.
In test [3], “chimeric anti-TNP human IgG4-LLGG (antibody)” returned a % inhibition of basophil activation (whole blood BAT) of 13%.
On to “chimeric anti-TNP human IgG2-FEGG (antibody)”, for which the Ka in test [2] worked out at 400000 M⁻¹.
For the substance “chimeric anti-TNP human IgG4-FEGG (antibody)”, in test [3], the % inhibition of basophil activation (washed blood BAT) was 42% and the % inhibition of basophil activation (whole blood BAT) is 8%.

These data come from patent US20240018269A1.
